{"source": "paper PMC10657434", "about": "“Architecture of the baculovirus nucleocapsid revealed by cryo-EM” (Nature Communications, 2023)", "binders": {"B1": {"name": "AC104 (VP80) (natural protein)", "chain": "MNDSNSLLITRLAAQILSRNMQTVDVIVDDKTLSLEEKIDTLTSMVLAVNSPPQSPPRVTSSDLAASIIKNNSKMVGNDFEMRYNVLRMAVVFVKHYPKYYNETTAGLVAEIESNLLQYQNYVNQGNYQNIEGYDSLLNKAEECYVKIDRLFKESIKKIMDDTEAFEREQEAERLRAEQTAANALLERRAQTSADDVVNRADANIPTAFSDPLPGPSAPRYMYESSESDTYMETARRTAEHYTDQDKDYNAAYTADEYNSLVKTVLLRLIEKALATLKNRLHITTIDQLKKFRDYLNSDADAGEFQIFLNQEDCVILKNLSNLASKFFNVRCVADTLEVMLEALRNNIELVQPESDAVRRIVIKMTQEIKDSSTPLYNIAMYKSDYDAIKNKNIKTLFDLYNDRLPINFLDTSATSPVRKTSGKRSAEDDLLPTRSSKRANRPEINVISSEDEQEDDDVEDVDYEKESKRRKLEDEDFLKLKALEFSKDIVNEKLQKIIVVTDGMKRLYEYCNCKNSLETLPSAANYGSLLKRLNLYNLDHIEMNVNFYELLFPLTLYNDNDNSDKTLSHQLVNYIFLASNYFQNCAKNFNYMRETFNVFGPFKQIDFMVMFVIKFNFLCDMRNFAKLIDELVPNKQPNMRIHSVLVMRDKIVKLAFSNLQFQTFSKKDKSRNTKHLQRLIMLMNANYNVI", "notes": "AC104 (VP80) of AcMNPV, as present in the native nucleocapsid; only Ile490-Thr664 and Asn673-Asn685 (AC104-1, AC104-2) and Asp463-Ile691 (AC104-3) are resolved and modelled; also called AC104-1; AC104-2; source: AcMNPV ODV nucleocapsids from occlusion bodies of infected Spodoptera exigua larvae; alkaline lysis, centrifugation"}}, "key": {"[1]": {"target": "the molecule itself", "assay": "cryo-EM structure; helical cylinder of native AcMNPV ODV nucleocapsids; helical reconstruction 3.9 Å, local refinement 3.2 Å; VP39 model built de novo; partners co-purified as the native nucleocapsid"}, "[2]": {"target": "B1", "assay": "cryo-EM structure; head and base of native AcMNPV ODV nucleocapsids; local refinement 4.3 Å (elements common to both ends), 4.8 Å (base with AC98), 4.9 Å (plug); AlphaFold2 models docked into density and refined; partners co-purified as the native nucleocapsid", "conditions": "both partners purified"}, "[3]": {"target": "the molecule itself", "assay": "cryo-EM structure; head and base of native AcMNPV ODV nucleocapsids; local refinement 4.3 Å (elements common to both ends), 4.8 Å (base with AC98), 4.9 Å (plug); AlphaFold2 models docked into density and refined; partners co-purified as the native nucleocapsid"}, "[4]": {"target": "the molecule itself", "assay": "cross-linking; purified AcMNPV nucleocapsid, 2 mM BS3 on ice 2 h, stopped with 50 mM Tris-HCl pH 7.5; mass spectrometry, pLink2"}}, "data": [{"binder": "major capsid protein VP39 (natural protein, major capsid protein VP39 of Autographa californica multiple nucleopolyhedrovirus (AcMNPV), as present in the native nucleocapsid; regions described in the model run from Arg14 to Asn320; Native virion protein; forms disulfide-linked dimers arranged as a 14-start helical cylinder; also called VP39A; VP39B; source: AcMNPV ODV nucleocapsids from occlusion bodies of infected Spodoptera exigua …) MALVPVGMAPRQMRVNRCIFASIVSFDACITYKSPCSPDAYHDDGWFICNNHLIKRFKMSKMVLPIFDEDDNQFKMTIARHLVGNKERGIKRILIPSATNYQDVFNLNSMMQAEQLIFHLIYNNENAVNTICDNLKYTEGFTSNTQRVIHSVYATTKSILDTTNPNTFCSRVSRDELRFFDVTNARALRGGAGDQLFNNYSGFLQNLIRRAVAPEYLQIDTEELRFRNCATCIIDETGLVASVPDGPELYNPIRSSDIMRSQPNRLQIRNVLKFEGDTRELDRTLSGYEEYPTYVPLFLGYQIINSENNFLRNDFIPRANPNATLGGGAVAGPAPGVAGEAGGGIAV", "values": [{"measurement": "binding result", "setting": "[1]", "value": "binds"}, {"measurement": "binding result", "setting": "[2]", "value": "binds"}]}, {"binder": "AC101 (BV/ODV-C42) (natural protein, AC101 (BV/ODV-C42) of AcMNPV, as present in the native nucleocapsid; ~110 N-terminal and ~30 C-terminal residues are not resolved; modelled parts include Glu112-Asn218, Ser219-Thr241 and Leu243-His334; also called BV/ODV-42; AC101-1; source: AcMNPV ODV nucleocapsids from occlusion bodies of infected Spodoptera exigua larvae; alkaline lysis, centrifugation) MSAIALYLEINKLRLKIDEPMQLAIWPQLFPLLCDEHQSVQLNTDVLINFMMHVARKSQNTILNNNAAIASQYAAGNADVVAAPASAQPTPRPVINLFARANAAAPAQPSEELINMRRYRNAARKLIHHYSLNSTSSTEYKISDVVMTMIFLLRSEKYHSLFKLLETTFDDYTCRPQMTQVQTDTLLDAVRSLLEMPSTTIDLTTVDIMRSSFARCFNSPIMRYAKIVLLQNVALQRDKRTTLEELLIERGEKIQMLQPQQYINSGTEIPFCDDAEFLNRLLKHIDPYPLSRMYYNAANTMFYTTMENYAVSNCKFNIEDYNNIFKVMENIRKHSNKNSNDQDELNIYLGVQSSNAKRKKY", "values": [{"measurement": "binding result", "setting": "[3]", "value": "binds"}]}, {"binder": "B1", "values": [{"measurement": "binding result", "setting": "[3]", "value": "binds"}]}, {"binder": "polyhedrin (natural protein, polyhedrin of AcMNPV, left in the nucleocapsid sample after alkaline lysis of occlusion bodies; also called polyhedrins; source: present in the buffer of the AcMNPV nucleocapsid preparation (nucleocapsids not isolated by gradient centrifugation)) MPDYSYRPTIGRTYVYDNKYYKNLGAVIKNAKRKKHFAEHEIEEATLDPLDNYLVAEDPFLGPGKNQKLTLFKEIRNVKPDTMKLVVGWKGKEFYRETWTRFMEDSFPIVNDQEVMDVFLVVNMRPTRPNRCYKFLAQHALRCDPDYVPHDVIRIVEPSWVGSNNEYRISLAKKGGGCPIMNLHSEYTNSFEQFIDRVIWENFYKPIVYIGTDSAEEEEILLEVSLVFKVKEFAPDAPLFTGPAY", "values": [{"measurement": "binding result", "setting": "[4]", "value": "binds"}]}]}
